From US20160264649A1

Assays:
Experiment in all cases: cell-based or functional assay
[1] = target: HIV-1 Env of pseudovirus isolate MGRM-G-001 (subtype G) (HIV-1)
[2] = target: HIV-1 Env of isolate 92UG114 (subtype D) (HIV-1)
[3] = target: HIV-1 Env of isolate MGRM-D-028 (subtype D) (HIV-1)
[4] = target: HIV-1 Env of isolate MGRM-F1-018 (subtype F) (HIV-1)
[5] = target: HIV-1 Env of isolate MGRM-F1-012 (subtype F) (HIV-1)
[6] = target: HIV-1 Env of isolate MGRM-D-020 (subtype D) (HIV-1)
[7] = target: HIV-1 Env of pseudovirus isolate MGRM-G-019 (subtype G) (HIV-1)
[8] = target: HIV-1 Env of isolate MGRM-D-003 (subtype D) (HIV-1)
[9] = target: HIV-1 Env of isolate MGRM-F1-004 (subtype F) (HIV-1)
[10] = target: HIV-1 Env of isolate MGRM-D-029 (subtype D) (HIV-1)
[11] = target: HIV-1 Env of pseudovirus isolate MGRM-G-015 (subtype G) (HIV-1)
[12] = target: HIV-1 Env of pseudovirus isolate MGRM-G-004 (subtype G) (HIV-1)
[13] = target: HIV-1 Env of isolate 98CN006 (subtype CRF08_BC) (HIV-1)
[14] = target: envelope of aMLV pseudovirus (negative control)
[15] = target: HIV-1 Env of isolate MGRM-F1-016 (subtype F) (HIV-1)
[16] = target: HIV-1 Env of isolate MGRM-D-021 (subtype D) (HIV-1)
[17] = target: HIV-1 Env of pseudovirus isolate MGRM-G-013 (subtype G) (HIV-1)
[18] = target: HIV-1 Env of pseudovirus isolate MGRM-G-006 (subtype G) (HIV-1)
[19] = target: HIV-1 Env of pseudovirus isolate MGRM-G-028 (subtype G) (HIV-1)
[20] = target: HIV-1 Env of isolate MGRM-F1-020 (subtype F) (HIV-1)
[21] = target: HIV-1 Env of isolate MGRM-F1-017 (subtype F) (HIV-1)
[22] = target: HIV-1 Env of isolate MGRM-F1-013 (subtype F) (HIV-1)
[23] = target: HIV-1 Env of isolate MGRM-F1-014 (subtype F) (HIV-1)
[24] = target: HIV-1 Env of isolate MGRM-D-022 (subtype D) (HIV-1)
[25] = target: HIV-1 Env of pseudovirus isolate MGRM-G-011 (subtype G) (HIV-1)
[26] = target: HIV-1 Env of isolate MGRM-F1-006 (subtype F) (HIV-1)
[27] = target: HIV-1 Env of isolate MGRM-D-026 (subtype D) (HIV-1)
[28] = target: HIV-1 Env of isolate MGRM-D-008 (subtype D) (HIV-1)
[29] = target: HIV-1 Env of pseudovirus isolate MGRM-G-016 (subtype G) (HIV-1)
[30] = target: HIV-1 Env of isolate MGRM-D-004 (subtype D) (HIV-1)
[31] = target: HIV-1 Env of isolate MGRM-D-019 (subtype D) (HIV-1)
[32] = target: HIV-1 Env of pseudovirus isolate MGRM-G-027 (subtype G) (HIV-1)
[33] = target: HIV-1 Env of isolate MGRM-D-002 (subtype D) (HIV-1)
[34] = target: HIV-1 Env of pseudovirus isolate MGRM-G-025 (subtype G) (HIV-1)
[35] = target: HIV-1 Env of isolate 92UG005 (subtype D) (HIV-1)
[36] = target: HIV-1 Env of isolate MGRM-D-001 (subtype D) (HIV-1)
[37] = target: HIV-1 Env of pseudovirus isolate MGRM-G-014 (subtype G) (HIV-1)
[38] = target: HIV-1 Env of isolate MGRM-F1-022 (subtype F) (HIV-1)
[39] = target: HIV-1 Env of isolate MGRM-D-012 (subtype D) (HIV-1)
[40] = target: HIV-1 Env of isolate MGRM-D-014 (subtype D) (HIV-1)
[41] = target: HIV-1 Env of isolate MGRM-D-013 (subtype D) (HIV-1)
[42] = target: HIV-1 Env of isolate 92UG046 (subtype D) (HIV-1)
[43] = target: HIV-1 Env of isolate MGRM-D-011 (subtype D) (HIV-1)
[44] = target: HIV-1 Env of isolate MGRM-D-016 (subtype D) (HIV-1)
[45] = target: HIV-1 Env of isolate MGRM-F1-023 (subtype F) (HIV-1)
[46] = target: HIV-1 Env of pseudovirus isolate MGRM-G-009 (subtype G) (HIV-1)
[47] = target: HIV-1 Env of isolate 92UG024 (subtype D) (HIV-1)
[48] = target: HIV-1 Env of isolate MGRM-F1-021 (subtype F) (HIV-1)
[49] = target: HIV-1 Env of isolate MGRM-D-005 (subtype D) (HIV-1)
[50] = target: HIV-1 Env of isolate MGRM-F1-015 (subtype F) (HIV-1)
[51] = target: HIV-1 Env of isolate MGRM-F1-008 (subtype F) (HIV-1)
[52] = target: HIV-1 Env of pseudovirus isolate MGRM-G-017 (subtype G) (HIV-1)
[53] = target: HIV-1 Env of pseudovirus isolate MGRM-G-024 (subtype G) (HIV-1)
[54] = target: HIV-1 Env of isolate MGRM-D-018 (subtype D) (HIV-1)
[55] = target: HIV-1 Env of isolate MGRM-F1-010 (subtype F) (HIV-1)
[56] = target: HIV-1 Env of isolate 92UG001 (subtype D) (HIV-1)
[57] = target: HIV-1 Env of isolate MGRM-D-024 (subtype D) (HIV-1)
[58] = target: HIV-1 Env of isolate 98CN009 (subtype CRF07_BC) (HIV-1)

B1: PGT-136 (antibody, V domains shown)
VH: QLQLQESGPGLVKPSETLSLTCTVSGGSMRGTDWGENDFHYGWIRQSSAKGLEWIGSIHWRGRTTHYKTSFRSRATLSIDTSNNRFSLTFSFVTAADTAVYYCARHKYHDIFRVVPVAGWFDPWGQGLLVTVSS
VL: EIVMTQSPPTLSVSPGETATLSCRASQNVKNNLAWYQLKPGQAPRLLIFDASSRAGGIPDRFSGSGYGTDFTLTVNSVQSEDFGDYFCQQYEEWPRTFGQGTKVDIK
- IC50 [1]: 8.11 µg/mL
- IC50 (neutralization) [2]: > 50 µg/mL
- IC50 (neutralization) [3]: > 50 µg/mL
- IC50 (neutralization) [4]: > 50 µg/mL
- IC50 (neutralization) [5]: > 50 µg/mL
- IC50 (neutralization) [6]: > 50 µg/mL
- IC50 [7]: 44.3 µg/mL
- IC50 (neutralization) [8]: > 50 µg/mL
- IC50 (neutralization) [9]: > 50 µg/mL
- IC50 (neutralization) [10]: > 50 µg/mL
- IC50 [11]: > 50 µg/mL
- IC50 [12]: > 50 µg/mL
- IC50 (neutralization) [13]: 0.406 µg/mL
- IC50 [14]: > 50 µg/mL
- IC50 (neutralization) [15]: > 50 µg/mL
- IC50 (neutralization) [16]: > 50 µg/mL
- IC50 [17]: > 50 µg/mL
- IC50 [18]: > 50 µg/mL
- IC50 [19]: > 50 µg/mL
- IC50 (neutralization) [20]: 9.31 µg/mL
- IC50 (neutralization) [21]: > 50 µg/mL
- IC50 (neutralization) [22]: > 50 µg/mL
- IC50 (neutralization) [23]: > 50 µg/mL
- IC50 (neutralization) [24]: > 50 µg/mL
- IC50 [25]: > 50 µg/mL
- IC50 (neutralization) [26]: > 50 µg/mL
- IC50 (neutralization) [27]: > 50 µg/mL
- IC50 (neutralization) [28]: > 50 µg/mL
- IC50 [29]: > 50 µg/mL
- IC50 (neutralization) [30]: > 50 µg/mL
- IC50 (neutralization) [31]: > 50 µg/mL
- IC50 [32]: 45.2 µg/mL
- IC50 (neutralization) [33]: > 50 µg/mL
- IC50 [34]: > 50 µg/mL
- IC50 (neutralization) [35]: > 50 µg/mL
- IC50 (neutralization) [36]: > 50 µg/mL
- IC50 [37]: > 50 µg/mL
- IC50 (neutralization) [38]: 2.42 µg/mL
- IC50 (neutralization) [39]: > 50 µg/mL
- IC50 (neutralization) [40]: > 50 µg/mL
- IC50 (neutralization) [41]: > 50 µg/mL
- IC50 (neutralization) [42]: > 50 µg/mL
- IC50 (neutralization) [43]: > 50 µg/mL
- IC50 (neutralization) [44]: > 50 µg/mL
- IC50 (neutralization) [45]: > 50 µg/mL
- IC50 [46]: > 50 µg/mL
- IC50 (neutralization) [47]: 0.052 µg/mL
- IC50 (neutralization) [48]: > 50 µg/mL
- IC50 (neutralization) [49]: > 50 µg/mL
- IC50 (neutralization) [50]: > 50 µg/mL
- IC50 (neutralization) [51]: > 50 µg/mL
- IC50 [52]: > 50 µg/mL
- IC50 [53]: 0.152 µg/mL
- IC50 (neutralization) [54]: > 50 µg/mL
- IC50 (neutralization) [55]: > 50 µg/mL
- IC50 (neutralization) [56]: > 50 µg/mL
- IC50 (neutralization) [57]: > 50 µg/mL
- IC50 (neutralization) [58]: 0.428 µg/mL

B2: PGT-137 (antibody, V domains shown)
VH: EVHLEESGPGLVRPSETLSLTCTASGGSIRGGEWGDSDYHWGWVRHSPEKGLEWIGSIHWRGTTHYNAPFRGRGRLSIDLSRNQFSLRLTSVTAEDTAVYYCVKHKYHDIVMVVPIAGWFDPWGQGLQVTVSS
VL: EIMMTQSPAILSVSPGDRATLSCRASQSVKNNLAWYQKRPGQAPRLLIFDTSSRASGIPARFSGGGSGTEFTLTVNSMQSEDFATYYCQQYEEWPRTFGQGTKVEIK
- IC50 [1]: 41.7 µg/mL
- IC50 (neutralization) [2]: > 50 µg/mL
- IC50 (neutralization) [3]: > 50 µg/mL
- IC50 (neutralization) [4]: > 50 µg/mL
- IC50 (neutralization) [5]: > 50 µg/mL
- IC50 (neutralization) [6]: > 50 µg/mL
- IC50 [7]: 0.126 µg/mL
- IC50 (neutralization) [8]: > 50 µg/mL
- IC50 (neutralization) [9]: 40.3 µg/mL
- IC50 (neutralization) [10]: > 50 µg/mL
- IC50 [11]: > 50 µg/mL
- IC50 [12]: > 50 µg/mL
- IC50 (neutralization) [13]: 1.22 µg/mL
- IC50 [14]: > 50 µg/mL
- IC50 (neutralization) [15]: > 50 µg/mL
- IC50 (neutralization) [16]: > 50 µg/mL
- IC50 [17]: > 50 µg/mL
- IC50 [18]: > 50 µg/mL
- IC50 [19]: > 50 µg/mL
- IC50 (neutralization) [20]: 1.93 µg/mL
- IC50 (neutralization) [21]: > 50 µg/mL
- IC50 (neutralization) [22]: > 50 µg/mL
- IC50 (neutralization) [23]: > 50 µg/mL
- IC50 (neutralization) [24]: > 50 µg/mL
- IC50 [25]: > 50 µg/mL
- IC50 (neutralization) [26]: > 50 µg/mL
- IC50 (neutralization) [27]: > 50 µg/mL
- IC50 (neutralization) [28]: > 50 µg/mL
- IC50 [29]: > 50 µg/mL
- IC50 (neutralization) [30]: > 50 µg/mL
- IC50 (neutralization) [31]: > 50 µg/mL
- IC50 [32]: 0.228 µg/mL
- IC50 (neutralization) [33]: > 50 µg/mL
- IC50 [34]: > 50 µg/mL
- IC50 (neutralization) [35]: > 50 µg/mL
- IC50 (neutralization) [36]: > 50 µg/mL
- IC50 [37]: > 50 µg/mL
- IC50 (neutralization) [38]: 6.23 µg/mL
- IC50 (neutralization) [39]: > 50 µg/mL
- IC50 (neutralization) [40]: > 50 µg/mL
- IC50 (neutralization) [41]: > 50 µg/mL
- IC50 (neutralization) [42]: > 50 µg/mL
- IC50 (neutralization) [43]: 6.3 µg/mL
- IC50 (neutralization) [44]: > 50 µg/mL
- IC50 (neutralization) [45]: > 50 µg/mL
- IC50 [46]: > 50 µg/mL
- IC50 (neutralization) [47]: 0.106 µg/mL
- IC50 (neutralization) [48]: > 50 µg/mL
- IC50 (neutralization) [49]: > 50 µg/mL
- IC50 (neutralization) [50]: > 50 µg/mL
- IC50 (neutralization) [51]: > 50 µg/mL
- IC50 [52]: 34.9 µg/mL
- IC50 [53]: 0.051 µg/mL
- IC50 (neutralization) [54]: 15.1 µg/mL
- IC50 (neutralization) [55]: > 50 µg/mL
- IC50 (neutralization) [56]: > 50 µg/mL
- IC50 (neutralization) [57]: > 50 µg/mL
- IC50 (neutralization) [58]: 5.06 µg/mL
